Test results as given in patent US7994123B2, “Hybrid proteins with ErbB4 extracellular domain and neuregulin heparin-binding domain for targeting” (Wayne State University, priority 2004, dated 2011).

What was measured:
[1] = system: erbB receptor phosphorylation (p185) in MCF10AT cells; assay: p185 receptor phosphorylation western blot, MCF10AT; assay type: cell-based, human; settings: exogenous NRG, 30 min
Description: (§1) Western blots and L6 muscle assays: P185 receptor phosphorylation of the three cell lines was measured by phosphotyrosine western blots after NRG treatment for 30 min on 3 day old cultures as described in WO 03/012045 and Li Q & Loeb J A (2001) J Biol Chem; 276:38068-75. […] The media was discarded and phosphotyrosine western blots were performed as above. The membranes were stripped and reprobed with polyclonal rabbit erbB2 for the detection of overall erbB2 protein that was used for quantitation.

[2] = system: erbB receptor phosphorylation (p185) in MCF10CA1 cells; assay: p185 receptor phosphorylation western blot, MCF10CA1; assay type: cell-based, human; settings: exogenous NRG, 30 min; above high basal levels
Description: as §1
(§2) After 2 days, the Optimem I conditioned media was concentrated by Centricon at 4° C. 40 μl of IgB4 conditioned media or 10 μM of tyrosine kinase inhibitor AG1478 were combined with […] 1 nM NRG in MCF10A/AT media for 15 min at room temperature before being added to MCF10CA1 cells for 30 min treatment. […] The amount of each antagonist was determined empirically based on its ability to block NRG-induced activation of L6 cells.

[3] = system: MCF10CA1 human breast cancer cells; assay: Cell proliferation assay, MCF10CA1; assay type: cell-based
Description: (§3) Cell proliferation assays: All three breast epithelial cell lines were plated at 5000 cells/well in 48 well plates in regular MCF10A/AT or MCF10CA1 media. After incubation for 3 days, 1 nM NRG in MCF10A/AT media or just MCF10A/AT media alone were applied to the cells for another 24 hours followed by washing them with culture media and then counting cell numbers using an hemocytometer on the 4th, 5th, 6th, 7th and 8th day.
as §2

[4] = system: eight NRG-response proliferation genes in MCF10A cells; assay: Northern blot of proliferation genes, MCF10A; assay type: cell-based, human; settings: 1 nM NRG for 24 hours
Description: (§4) RNA preparation and Northern blotting: MCF10A, MCF10AT and MCFCA1 cells were cultured in 25 cm flasks to approximately 60% confluence. The cells were treated with 1 nM NRG in MCF10A/AT media for 24 hours. The cells were then washed with phosphate buffered saline (PBS) once and harvested. Total RNA was extracted from cells using Ultraspec (Biotecx Laboratories, Inc.), “cleaned up” by Rneasy® purification kit (Qiagen, Valencia, Calif.), and subsequently to quantified using a fluorescent dye binding method called Ribogreen (Molecular Probes, Eugene, Oreg.). Northern blots were performed as described previously (Li & Loeb, supra) on RNA extracted from the 3 breast epithelial cell lines after NRG treatment in MCF10A/AT media verses control MCF10A/AT media. Probes were generated by PCR and then prepared by random priming to full-length cDNA clones from the clones provided by Alphagene Inc as described. The membranes were reprobed with a ^32P-labeled GAPDH probe for normalization.

MCF10AT cells = assay: Cell proliferation assay, MCF10AT; assay type: cell-based, human; settings: 1 nM NRG for 24 hours, three days after plating
Description: as §3

[5] = system: eight NRG-response proliferation genes in MCF10CA1 cells; assay: Northern blot of proliferation genes, MCF10CA1; assay type: cell-based, human; settings: 1 nM NRG for 24 hours
Description: as §4

[6] = system: erbB receptor phosphorylation (p185) in MCF10A cells; assay: p185 receptor phosphorylation western blot, MCF10A; assay type: cell-based, human; settings: exogenous NRG, 30 min
Description: as §1

[7] = system: eight NRG-response proliferation genes in MCF10AT cells; assay: Northern blot of proliferation genes, MCF10AT; assay type: cell-based, human; settings: 1 nM NRG for 24 hours
Description: as §4

MCF10A cells = assay: Cell proliferation assay, MCF10A; assay type: cell-based, human; settings: 1 nM NRG for 24 hours, three days after plating
Description: as §3

Heparin column binding = settings: conditioned media; anti-HA western blot of flow through and elution
Description: (§5) 4. Cell culture: The L6 cells were cultured in DMEM supplemented with 10% fetal calf serum, 1 mM L-glutamine and 1000 U/ml penicillin/streptomycin at 37° C. in 10% CO2 incubator. The HEK293 cells were cultured in DMEM with 10% fetal calf serum, 1 mM L-glutamine, 2 mM sodium pyruvate, 0.1 mM non-essential amino acids, 1000 U/ml penicillin/streptomycin at 37° C. in 10% CO2 incubator. The selective antibiotics Geneticin 200 μg/ml (Gibco-Invitrogen) was added to the cell cultures of stably transfected HEK293 cells harboring the NRG antagonists. 5. Stable expression of NRG antagonists in HEK293 cells: HEK293 cells were cultured in […] flasks to 80% confluence and transfected with the four NRG antagonist constructs using lipofectamine 2000 (Invitrogen Life Science) as instructed. The antibiotic Geneticin was then added at a concentration of 400 μg/ml to the transfected HEK293 cells to select the positive antagonist transfected cells. After three weeks of Geneticin selection, the transfected HEK293 cells were diluted and plated in 96 well plates to yield single positive clones. The single clones that expressed the highest levels of antagonists (confirmed by western blot using HA antibody) were then maintained in culture media with 200 μg/ml Geneticin. Optimem I (Gibco-Invitrogen) was applied to the stably transfected NRG antagonist cell lines at 37° C. in 10% CO2 incubator for 2 days. The conditioned Optimem I media was then used in the following experiments. 6. Heparin column binding: The conditioned media containing the four NRG antagonists was passed through the heparin column to allow binding to heparin. The excessive unbound antagonist proteins were washed off by 1×PBS twice. The antagonist proteins were then eluted by increasing concentration of NaCl (0.25, 0.3, 0.4, 0.5, 0.6 and 1M). The flow through solution from each step was examined by anti-HA western blots, as described later, to determine heparin binding ability of the antagonists. 7. Purification and quantitation of recombinant proteins: The NRG antagonists were purified by anti-HA affinity matrix (3F10) (rat mAb) according to manufacturer's instructions. Briefly, the column was equilibrated with buffer containing 20 mM Tris pH 7.5, 0.1 M NaCl, 0.1 M EDTA, and each antagonist in conditioned medium was applied individually to the anti-HA affinity matrix. Excess unbound antagonist proteins were washed with 20 volume of washing buffer (20 mM Tris pH 7.5, 0.1 M NaCl, 0.1 M EDTA and 0.05% Tween 20). The bound NRG antagonists were eluted with 0.1 M glycine (pH 2). The purified recombinant protein was then quantified using a BioRad Protein Assay kit (Bio-Rad, Hercules, Calif.) 8. Silver stain: Both the conditioned media and the purified NRG antagonists were resolved on 7.5% reducing SDS-polyacrylamide gels. The gel was fixed with 30% ethanol and 10% acetic acid for 30 min. 10% ethanol and ultrapure water were used subsequently to wash the gel before staining with SilverSNAP stain solution with enhancer for 30 min. The gel was then developed using SilverSNAP developer solution with enhancer. 5% acetic acid was used to stop the reaction when the desired band intensity was reached. The gel was dried on filter paper using a vacuum gel dyer. 9. […] Positive control L6 cells were treated with 50 pM NRG alone. L6 cell lysates were prepared and run on 5% SDS-PAGE gel. Western blots of erbB receptor phosphorylation were performed using 4G10 antibody. 10. Western blot: Western blots were performed on both conditioned NRG antagonist media and the antagonist-treated L6 cells. The antagonist proteins and the L6 cells were solubilized in SDS sample buffer and boiled for 5 min as described above (see also Li et al., supra). The NRG antagonists run on 7.5% SDS-PAGE gel were detected by anti-HA mAb HA.11. Phosphotyrosine mAb 4G10 was used to detect phosphorylated erbB receptor (p185) in L6 cell western blot analysis following resolution on overrun 5% reducing SDS-polyacrylamide gels. […]

[8] = system: Mat BIII rat breast cancer cells; assay: Rat syngeneic breast cancer spontaneous metastasis model; assay type: in vivo; settings: female Fisher rats, 14-day osmotic mini-pump, about 4 mg/kg/day
Description: The rat syngeneic breast cancer system (Xing et al., Int. J. Cancer 67:423-429 (1996) employs Mat BIII rat breast cancer cells. Tumor cells, for example about 10^6 in 0.1 ml PBS, are inoculated into the mammary fat pads of female Fisher rats. At the time of inoculation, a 14-day Alza osmotic mini-pump is implanted intraperitoneally to dispense the test compound. The compound is dissolved in PBS (e.g., 200 mM stock), sterile filtered and placed in the minipump to achieve a release rate of about 4 mg/kg/day. Control animals receive vehicle (PBS) alone or a vehicle control peptide in the minipump. Animals are sacrificed at about day 14. In the rats treated with the active compounds of the present invention, significant reductions in the size of the primary tumor and in the number of metastases in the spleen, lungs, liver, kidney and lymph nodes (enumerated as discrete foci) are observed. Histological and immunohistochemical analysis reveal increased necrosis and signs of apoptosis in tumors in treated animals. Large necrotic areas are seen in tumor regions lacking neovascularization. […] In contrast, treatment with control polypeptides fails to cause a significant change in tumor size or metastasis.

[9] = system: erbB receptor phosphorylation (p185) in L6 cells; assay: L6 assay: block of NRG-induced erbB receptor phosphorylation (p185); assay type: cell-based; settings: preincubated with L6 muscle cells one hour, thoroughly washed before adding recombinant neuregulin
Description: as §5

Row | Molecule | induction of erbB receptor phosphorylation (p185), MCF10AT [1] | induction of erbB receptor phosphorylation (p185), MCF10CA1 [2] | effect on growth rate of MCF10CA1 cells ([3]; 1 nM NRG for 24 hours, three days after plating) | regulation of 8 NRG-response genes, MCF10A [4] | effect on growth rate of MCF10AT cells (MCF10AT cells) | regulation of 8 NRG-response genes, MCF10CA1 [5] | induction of erbB receptor phosphorylation (p185), MCF10A [6] | regulation of 8 NRG-response genes, MCF10AT [7] | effect on growth rate of MCF10A cells (MCF10A cells) | binding to heparin column (Heparin column binding) | effectiveness at blocking proliferation compared with Herceptin ([3]; 1 nM GlyB4 versus Herceptin 100 μg/ml) | blocking of cancer cell growth ([3]; 1 nM, treated on days 0, 3 and 6, compared to control cells or cells treated with B4) | potency relative to control polypeptides [8] | sustained blockade of neuregulin signaling (p185 phosphorylation) [9]
1 | NRG: recombinant neuregulin β1 IG-EGF form provided by Amgen (protein) KKKERGSGKKPESAAGSQSPALPPRLKEMKSQESAAGSKLVLRCETSSEYSSLRFKWFKNGNELNRKNKPQNIKIQKKPGKSELRINKASLADSGEYMCKVISKLGNDSASANITIVESNEIITGMPASTEGAYVSSESPIRISVSTEGANTSSSTSTSTTGTSHLVKCAEKEKTFCVNGGECFMVKDLSNPSRYLCKCQPGFTGARCTENVPMKVQNQEKAEELYQKRVLTITGICIALLVVGIMCVVAYCKTKKQRKKLHD | induced strong erbB receptor phosphorylation | only a small incremental amount of phosphorylation | increased the initial growth rate | rapid down-regulation of all 8 of these genes | only a small, initial reduction in growth rate | very little down-regulation of only a few of these genes | induced strong erbB receptor phosphorylation | rapid down-regulation of all 8 of these genes | sustained reduction in the growth rate |  |  |  |  | 
2 | GlyB4: purified HBD-S-B4 fusion with HIS tag instead of HA tag (protein, left off: small tags and cut ends) QSGYKKKERGSGKKPESAAGSQSPALPPRLKEMKSQESAAGSKLVLRCETSSEYSSLRFKWFKPNGNELNRKNKQNIKIQKKPGKSELRINKASLADSGEYMCKVISKLGNDSASANITIVESNEIITGMPASTEGAYVSSESPIRISVSTEGANTSSSTSTSTTGTSGTQSVCAGTENKLSSLSDLEQQYRALRKYYENCEVVMGNLEITSIEHNRDLSFLRSVREVTGYVLVALNQFRYLPLENLRIIRGTKLYEDRYALAIFLNYRKDGNFGLQELGLKNLTEILNGGVYVDQNKFLCYADTIHWQDIVRNPWPSNLTLVSTNGSSGCGRCHKSCTGRCWGPTENHCQTLTRTVCAEQCDGRCYGPYVSDCCHRECAGGCSGPKDTDCFACMNFNDSGACVTQCPQTFVYNPTTFQLEHNFNAKYTYGAFCVKKCPHNFVVDSSSCVRACPSSKMEVEENGIKMCKPCTDICPKACDGIGTGSLMSAQTVDSSNIDKFINCTKINGNLIFLVTGIHGDPYNAIEAIDPEKLNVFRTVREITGFLNIQSWPPNMTDFSVFSNLVTIGGRVLYSGLSLLILKQQGITSLQFQSLKEISAGNIYITDNSNLCYYHTINWTTLFSTINQRIVIRDNRKAENCTAEGMVCNHLCSSDGCWGPGPDQCLSCRRFSRGRICIESCNLYDGEFREFENGSICVECDPQCEKMEDGLLTCHGPGPDNCTKCSHFKDGPNCVEKCPDGLQGANSFIFKYADPDRECHPCHPNCTQGCNGPTSHDCIYYPWTGHSTLPQHAKN |  |  |  |  |  |  |  |  |  | binds to heparin | comparably, if not slightly more, effective | significantly more potent at blocking cancer cell growth | at least two-fold more potent than the relevant control polypeptides | complete and sustained blockade of neuregulin signaling
